# Reference: the supplement of paper PMC10724198
# ± gives the standard deviation of the averaged measurements.
# System: Saccharomyces cerevisiae
# Assay: protein stability index of tFT-peptide fusion (C-terminal peptide) (PSI (0-1 scale)); higher = more stable (slower turnover)
# Settings: genetic background: wild type; temperature: 30 C
# 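Further: PSI is a weighted mean of sequencing reads over stability bins, variants kept only with over 10 reads, mCherry proximal and sfGFP distal, peptide attached via GGGS linker.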
row,Sequence,protein stability index
1,LVGFGGGGDGVV,0.693 ± 0.032
2,LSKTRRPKSADM,0.7 ± 0.025
3,KQWGTHSSWLEV,0.701 ± 0.076
4,GLSWSSGGLMVF,0.615 ± 0.037
5,GTIEFNKIEDFW,0.715 ± 0.039
6,PARRPPPTPSSS,0.631 ± 0.064
7,LGSCRCFAFVSL,0.659 ± 0.023
8,ASPLPPPSHLSL,0.741 ± 0.021
9,RRPQPPHKTAMP,0.701 ± 0.078
10,WQNKKDNGKIRG,0.724 ± 0.11
11,NKTKIKKKKKRG,0.657 ± 0.013
12,VYFLWPRFVCDA,0.585 ± 0.044
13,SFPLSPPSLPSL,0.781 ± 0.1
14,SFSLPPSSSPPT,0.725 ± 0.1
15,VCWLTCCGQLIA,0.514 ± 0.0068
16,SYTIPPSTYLPS,0.704 ± 0.043
17,PSSCSLLPLCLG,0.663 ± 0.065
18,IFRSCCLLGLCL,0.591 ± 0.099
19,SSGISEGFERGG,0.581 ± 0.014
20,RARVGGRQLRRV,0.753 ± 0.15
21,PSPSGRGLAIAP,0.688 ± 0.013
22,GGRWMWWAGAAG,0.79 ± 0.3
23,CDDIIKGEIRIM,0.722 ± 0.041
24,GGRGFRGVLRSN,0.696 ± 0.069
25,GIGRRIGSELSF,0.668 ± 0.047
26,PHTLKPNPLSTA,0.61 ± 0.063

row,Sequence,protein stability index
1,PGCSFSYYFFAV,0.5725 ± 0.0016
2,PGSPPGLERLGR,0.694 ± 0.059
3,CSGRDLSLSMAD,0.744 ± 0.13
4,KEYRTKNNKGRK,0.654 ± 0.11
5,PAPRPAPPSLPP,0.709 ± 0.015
6,QIPEYGGQGVNV,0.6935 ± 0.0047
7,CSKERAPGPSSG,0.705 ± 0.075
8,PFCCALPSPPSP,0.6145 ± 0.0055
9,VGVWWWWCFGSW,0.595 ± 0.069
10,ECVRWFKNTDRL,0.721 ± 0.032
11,PSSHHGNQTTRK,0.826 ± 0.14
12,GKRYLIKKRKKT,0.698 ± 0.021
13,TTGNTHALSHAH,0.717 ± 0.055
14,SIIRWSKRTEES,0.695 ± 0.049
15,CQVTDYLVLDWG,0.727 ± 0.038
16,RGRCGRLSRAGA,0.727 ± 0.041
17,YRLAPGCSFHPT,0.666 ± 0.028
18,YGGRQRCRGRVE,0.825 ± 0.16
19,VDLLFLMVGTSV,0.574 ± 0.011
20,REHLSERVPSRA,0.749 ± 0.057
21,IKKKKKKIKRNN,0.654 ± 0.0099
22,VGASRAGGEVSR,0.651 ± 0.013
23,SLFSLLRSPSPF,0.806 ± 0.18
24,GGVGLVGEVCPI,0.688 ± 0.028
25,RAPFLSRACCSR,0.648 ± 0.013
26,PTPPRPGPIITF,0.699 ± 0.031

row,Sequence,protein stability index
1,STLCVRLITSAR,0.649 ± 0.077
2,GVEVCEGDGPLK,0.669 ± 0.015
3,SSRRQSSRPPHS,0.648 ± 0.025
4,LRGAGAGPEDVG,0.6847 ± 0.0026
5,GQSRQKNEKKIK,0.687 ± 0.0091
6,YGKENGNRNTGR,0.621 ± 0.014
7,PTRPPRPRAGPR,0.742 ± 0.0077
8,PIFPPLTSPSPP,0.68 ± 0.032
9,SKLRDFHVLVTH,0.611 ± 0.011
10,VLVPVDRCGYIG,0.619 ± 0.11
11,RRGAGCAAVGLG,0.618 ± 0.024
12,GEVMLRYQRISF,0.713 ± 0.018
13,AFPSSLVFFFYT,0.651 ± 0.033
14,SPLPPPPPVPLP,0.652 ± 0.082
15,RKEKRKRRGEAN,0.662 ± 0.061
16,LTRRSPSPRTLT,0.644 ± 0.03
17,WWGCVGRVGVEG,0.726 ± 0.1
18,INHNKNKTIIAL,0.655 ± 0.0075
19,TQHPQPCPLAAV,0.712 ± 0.12
20,GGLNIGIGYSVG,0.643 ± 0.1
21,DLLPGAGRDSRL,0.775 ± 0.21
22,KLQKTKNPKSNT,0.6624 ± 0.0046
23,GTLAAGGGVPMS,0.734 ± 0.034
24,GTDEWKRKYNTP,0.695 ± 0.045
25,RGGDGGGLRTRD,0.688 ± 0.037
26,PSRRAPQSRPSQ,0.733 ± 0.098

row,Sequence,protein stability index
1,VRWIEYDVKGWA,0.71 ± 0.011
2,PPAALPPSTLFS,0.673 ± 0.04
3,AAPSPRPTPLPS,0.698 ± 0.025
4,AQYSTPSPMGQT,0.671 ± 0.044
5,RTAYLLRCLTTD,0.681 ± 0.026
6,ICMGSLLYVGPC,0.5515 ± 0.0034
7,PSPFDTPPSSGQ,0.722 ± 0.026
8,VCNLIRILSLVI,0.496 ± 0.031
9,CMGRCGVCCERS,0.711 ± 0.045
10,SPPPPHPPPPAD,0.651 ± 0.098
11,LLLGLPLDVGDS,0.708 ± 0.066
12,PPPWSFPCPSAS,0.778 ± 0.084
13,DSVYYVYRSTRV,0.679 ± 0.044
14,GVRAPPSPVSGL,0.6711 ± 0.0066
15,GKFKKRIRRGIK,0.695 ± 0.011
16,PLPPPPAHPPPP,0.616 ± 0.03
17,PSPPTPLPSRLF,0.7829 ± 0.0037
18,APLFPLTPLAPP,0.733 ± 0.017
19,RAILTVVRGHLE,0.668 ± 0.0086
20,STSYLKLKYSIY,0.498 ± 0.038
21,SMGGRVGDLACQ,0.725 ± 0.042
22,IVSPGSLAGCSV,0.675 ± 0.034
23,SFVFRLGEVGSS,0.603 ± 0.12
24,PLPPLLAGAGLS,0.704 ± 0.018
25,SSLPLPRVPPPP,0.717 ± 0.032
26,EVALDRLKNRGG,0.671 ± 0.028

row,Sequence,protein stability index
1,CDHLSLCDDLFA,0.753 ± 0.065
2,TTVSSSLSPVPD,0.7181 ± 0.0054
3,SWGLSVSSCFVW,0.578 ± 0.0066
4,YCGGWWGGWEIG,0.719 ± 0.0036
5,PDPPPTRPFPAP,0.672 ± 0.045
6,CVSALVADDLVS,0.674 ± 0.029
7,PPPRPPRPPLPS,0.727 ± 0.02
8,RPSGFVGSDVRV,0.629 ± 0.071
9,GCRRYLFLFFGC,0.6 ± 0.047
10,NKKKEKKKNEAK,0.684 ± 0.016
11,PPRPLLPTPSPL,0.7 ± 0.056
12,GTLSLAACLSEN,0.657 ± 0.077
13,VISLFSSLCSRL,0.797 ± 0.05
14,PLPSPSYLKSPC,0.705 ± 0.013
15,KSDTAWSHPYPS,0.6793 ± 0.00097
16,LLRRLILLQATW,0.5677 ± 0.0053
17,DSFPAGVLVQSK,0.664 ± 0.017
18,GAMLAGRQGGGL,0.655 ± 0.0089
19,YLSLPTSISLSS,0.693 ± 0.016
20,LVFSTLGSCFDG,0.685 ± 0.0099
21,INSKTRIQVTEN,0.73 ± 0.035
22,PALPPPPSPPLL,0.754 ± 0.052
23,TWGRPGGDHPRE,0.708 ± 0.0096
24,HERPVVLYGCTS,0.637 ± 0.02
25,EKKNMRYKTVEI,0.668 ± 0.066
26,VSRGGAVRLSTQ,0.7027 ± 0.0027

row,Sequence,protein stability index
1,EGIDFVDQRLLS,0.663 ± 0.005
2,TLCFSFPVPGFL,0.723 ± 0.1
3,LGVALARCLWGT,0.677 ± 0.022
4,GGCIGAKSVGGG,0.652 ± 0.027
5,FMMRPPVSSKVS,0.554 ± 0.0048
6,IVFRLGRFCGRV,0.709 ± 0.018
7,ESYGIVEEGVYS,0.652 ± 0.082
8,QASFPRPSGRAS,0.7026 ± 0.0054
9,SPVFSDFLLSLC,0.642 ± 0.028
10,PPPTLPPPSPFP,0.705 ± 0.038
11,KKEKKQRKKING,0.672 ± 0.075
12,CSLRVSADPLLT,0.7315 ± 0.0071
13,AYLNPFTSALTA,0.616 ± 0.028
14,SKEERRKGSKKI,0.686 ± 0.054
15,VLLSSPSLLFFE,0.703 ± 0.039
16,VQGEGVVAISMT,0.712 ± 0.021
17,LFYHLFWLFCSC,0.634 ± 0.046
18,ASARLRPDCPYL,0.645 ± 0.074
19,LGFFGGGRGAGG,0.677 ± 0.016
20,KPYKTYKIIKRE,0.6578 ± 0.0028
21,VVALVLVGRHGG,0.597 ± 0.041
22,VSVVGDVWGYGG,0.753 ± 0.068
23,AEKTKAEKNITK,0.752 ± 0.022
24,GRGPRTTKAGRG,0.7 ± 0.03
25,GTSERKVLNRKR,0.764 ± 0.015
26,PSTLLPSLRFPP,0.654 ± 0.056

row,Sequence,protein stability index
1,FCYLCARMPYRS,0.662 ± 0.13
2,CARAGLGFRWVG,0.621 ± 0.031
3,VWVEVDGLLVVV,0.534 ± 0.043
4,TPHRVGRAAATR,0.675 ± 0.02
5,LHRFTYAEVVWA,0.536 ± 0.031
6,HTPRLRRMRDYH,0.658 ± 0.087
7,VYQLTKNERVIK,0.643 ± 0.1
8,PPLPAPPPLRPP,0.606 ± 0.012
9,IGRVSVWDQKVA,0.673 ± 0.054
10,GKGDEPKAPTDR,0.65 ± 0.028
11,PFSSVATFLSRL,0.854 ± 0.17
12,GSDMRADGRIER,0.673 ± 0.039
13,LREKFFWTRIRR,0.724 ± 0.05
14,PQYLALLRTSIP,0.739 ± 0.043
15,GASGGGRGNLEV,0.727 ± 0.13
16,ARRGLVWTEGGG,0.718 ± 0.011
17,SPVFYYCPGYVD,0.702 ± 0.05
18,PPPPPHPTSPFP,0.751 ± 0.048
19,GGGARWGWGGRM,0.648 ± 0.033
20,RPRYITQGLPLL,0.738 ± 0.026
21,LRFRPLSGRAFF,0.664 ± 0.051
22,RVQLPSRITQKA,0.596 ± 0.023
23,PHLRPPPPPPPQ,0.6892 ± 0.0049
24,LGGCGWVDWWGL,0.732 ± 0.0096
25,CQYKRRLKTTET,0.732 ± 0.0085
26,VPPCESLSALSS,0.707 ± 0.034

row,Sequence,protein stability index
1,PSPSYAPARHQA,0.651 ± 0.063
2,PFYVEAVEKPEH,0.855 ± 0.035
3,GVENAHLFYLYL,0.63579 ± 0.00058
4,RGFRPLGSGILI,0.689 ± 0.051
5,GGRGVVVGQGAG,0.705 ± 0.027
6,RGSFGAWTVGGQ,0.59 ± 0.026
7,SLSIFLRDALGF,0.74 ± 0.035
8,HRLQGQGAWYVT,0.643 ± 0.061
9,CDFYGCAPAPRL,0.7945 ± 0.0077
10,GWCRVFLNFLMW,0.61142 ± 0.00012
11,WGRRGGVARGRA,0.787 ± 0.1
12,KKKIKKKKEKNT,0.664 ± 0.032
13,PSRLSLLWVNPP,0.8 ± 0.081
14,RKNDSKKNCVKE,0.705 ± 0.089
15,WLSAGAWGAVIL,0.788 ± 0.034
16,RRRQAEEDERNG,0.658 ± 0.07
17,PPNGAATTQDRL,0.699 ± 0.011
18,PPLSPPHRPPHS,0.71 ± 0.065
19,PENKSLITSPRV,0.628 ± 0.098
20,SVVLIQVVSKPT,0.58 ± 0.015
